Laboratory results reported in publication PMC4231325 (Scientific Reports, 2014).

Target: the molecule itself
Test: AUC

B1: SYCE3 (purified recombinant protein) (natural protein, Mus musculus, UniProt B5KM66 1-88, looked up)
chain: MADSDPGERSYDNMLKMLSDLNKDLEKLLEEMEKISVQATWMAYDMVVMRTNPTLAESMRRLEDAFLNCKEEMEKNWQELLTETKRKQ
  stoichiometry N: 2
